Assay results from PMC12048566.

Biological target: T1, GST-OsARF24 (Oryza sativa (rice), UniProt Q2QQX6 1-841)
T1 sequence: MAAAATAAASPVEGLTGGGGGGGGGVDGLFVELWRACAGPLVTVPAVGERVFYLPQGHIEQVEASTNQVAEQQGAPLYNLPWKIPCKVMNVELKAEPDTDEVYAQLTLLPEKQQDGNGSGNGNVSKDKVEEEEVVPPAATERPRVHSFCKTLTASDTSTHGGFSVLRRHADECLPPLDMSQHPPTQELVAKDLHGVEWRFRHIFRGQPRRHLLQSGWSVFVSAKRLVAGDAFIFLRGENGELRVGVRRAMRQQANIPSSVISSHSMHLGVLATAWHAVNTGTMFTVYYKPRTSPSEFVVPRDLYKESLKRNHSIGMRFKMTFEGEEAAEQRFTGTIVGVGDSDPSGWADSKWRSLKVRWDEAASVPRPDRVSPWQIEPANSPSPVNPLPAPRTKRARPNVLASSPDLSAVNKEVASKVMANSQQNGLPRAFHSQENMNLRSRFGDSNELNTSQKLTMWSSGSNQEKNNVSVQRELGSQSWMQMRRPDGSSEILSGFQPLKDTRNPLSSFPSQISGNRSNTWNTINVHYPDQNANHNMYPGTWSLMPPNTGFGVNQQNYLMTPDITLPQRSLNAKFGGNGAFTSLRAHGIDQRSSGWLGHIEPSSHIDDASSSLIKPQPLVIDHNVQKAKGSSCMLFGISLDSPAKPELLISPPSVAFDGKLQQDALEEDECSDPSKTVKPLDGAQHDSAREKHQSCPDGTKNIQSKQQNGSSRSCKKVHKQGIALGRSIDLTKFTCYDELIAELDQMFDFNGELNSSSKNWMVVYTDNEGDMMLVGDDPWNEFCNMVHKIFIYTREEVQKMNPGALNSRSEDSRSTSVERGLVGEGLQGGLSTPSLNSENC
Assay: EMSA

B1: ARF probe (OsMAP1/OsMPK3 promoter) (dsDNA)
DNA 1: TCATCGCCTTGCTGTCTCTGCGAATCGAGA
DNA 2: TCTCGATTCGCAGAGACAGCAAGGCGATGA
binding result: binds
